Reference: the supplement of paper PMC7877785
± gives the uncertainty stated by the source.

Assay: self-splicing fitness, log relative to wild type (ln ratio); higher = more splicing; Tetrahymena group I intron in knt gene, E. coli kanamycin selection, DiMSum; sequences stand for … in CUCUCU…GGAGGGAAAAGUUAUCAGGCAUGCACCUGGUAGCUAGUCUUUAAACCAAUAGAUUGCAUCGGUUUAAAAGGCAAGACCGUCAAAUUGCGGGAAAGGGGUCAACAGCCGUUCAGUACCAAGUCUCAGGGGAAACUUUGAGAUGGCCUUGCAAAGGGUAUGGUAAUAAGCUGACGGACAUGGUCCUAACCACGCAGCCAAGUCCUAAGUCAACAGAUCUUCUGUUGAUAUGGAUGCAGUUCACAGACUAAAUGUCGGUCGGGGAAGAUGUAUUCUUCUCAUAAGAUAUAGUCGGACCUCUCCUUAAUGGGAGCUAGCGGAUGAAGUGAUGCAACACUGGAGCCGCUGGGAACUAAUUUGUAUGCGAAAGUAUAUUGAUUAGUUUUGGAGUACUCGUGGUCG
Summary of the method: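 Fitness was computed with DiMSum as the error-weighted combination of replicate fold changes, kanamycin versus none, each normalised to wild type. The library randomised all eight intron nucleotides of the P1ex region, with the intron placed in the knt kanamycin-resistance gene on pET-22b(+) in E. coli BL21(DE3). Six replicate transformations were grown overnight at 37°C or 30°C on LB agar with or without 25 μg/mL kanamycin, plus 100 μg/mL carbenicillin, 50 μM IPTG and 0.2% rhamnose. Pooled colonies were amplicon-sequenced on an Illumina HiSeq 2500.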

| Sequence | self-splicing fitness (ln) (30 °C) | self-splicing fitness (ln) (37 °C) |
| --- | --- | --- |
| UUAAAGCAAUAUUACGCUAA | -0.626 ± 0.1 | -0.111 ± 0.12 |
| UUAAAGCAAUAUUACGCUAG | -0.313 ± 0.092 | 0.141 ± 0.11 |
| UUAAAGCAAUAUUACGCUCU | -0.795 ± 0.15 | 0.21 ± 0.14 |
| UUAAAGCAAUAUUACGCUUU | -4.36 ± 0.35 | -1.94 ± 0.24 |
| UUAAAGCAAUAUUACGGCCC | -1.67 ± 0.17 | 0.305 ± 0.23 |
| UUAAAGCAAUAUUACGGCUC | -0.0999 ± 0.18 | 0.714 ± 0.23 |
| UUAAAGCAAUAUUACGGGCA | -0.351 ± 0.12 | 0.329 ± 0.16 |
| UUAAAGCAAUAUUACGGUCC | – | -1.2 ± 0.36 |
| UUAAAGCAAUAUUACGGUCU | -0.805 ± 0.074 | -0.3 ± 0.098 |
| UUAAAGCAAUAUUACGUAAC | -2.67 ± 0.17 | -1.62 ± 0.2 |
| UUAAAGCAAUAUUACGUCAU | -1.94 ± 0.18 | -0.671 ± 0.17 |
| UUAAAGCAAUAUUACGUCGG | -0.114 ± 0.074 | 0.43 ± 0.091 |
| UUAAAGCAAUAUUACGUCGU | -1.76 ± 0.11 | -0.737 ± 0.12 |
| UUAAAGCAAUAUUACGUGCA | -0.0172 ± 0.1 | 0.542 ± 0.13 |
| UUAAAGCAAUAUUACGUGGU | -3.26 ± 0.12 | -2.73 ± 0.15 |
| UUAAAGCAAUAUUACGUGUA | -0.993 ± 0.066 | 0.0738 ± 0.08 |
| UUAAAGCAAUAUUACGUUUC | -3.92 ± 0.39 | -1.18 ± 0.31 |
| UUACAGCAAUAUUACGAACG | -0.834 ± 0.1 | -0.112 ± 0.13 |
| UUACAGCAAUAUUACGAAGA | -1.25 ± 0.15 | -0.992 ± 0.15 |
| UUACAGCAAUAUUACGAAUU | -3.13 ± 0.22 | -3.1 ± 0.24 |
| UUACAGCAAUAUUACGACAC | -3.53 ± 0.43 | – |
| UUACAGCAAUAUUACGACCU | -1.38 ± 0.18 | -1.25 ± 0.18 |

| Sequence | self-splicing fitness (ln) (30 °C) | self-splicing fitness (ln) (37 °C) |
| --- | --- | --- |
| UUACAGCAAUAUUACGACGG | -0.531 ± 0.097 | 0.113 ± 0.13 |
| UUACAGCAAUAUUACGAGAU | -2.96 ± 0.25 | -1.69 ± 0.24 |
| UUACAGCAAUAUUACGAGCG | -0.688 ± 0.088 | -0.631 ± 0.096 |
| UUACAGCAAUAUUACGAGGC | – | -1.85 ± 0.3 |
| UUACAGCAAUAUUACGAUAA | -0.0512 ± 0.1 | -0.232 ± 0.11 |
| UUACAGCAAUAUUACGAUAU | -1.83 ± 0.11 | -0.951 ± 0.14 |
| UUACAGCAAUAUUACGCAAC | -3.55 ± 0.33 | -2.32 ± 0.27 |
| UUACAGCAAUAUUACGCCAA | -1.35 ± 0.17 | -1.01 ± 0.17 |
| UUACAGCAAUAUUACGCUCA | -0.512 ± 0.12 | -0.224 ± 0.13 |
| UUACAGCAAUAUUACGGAAG | -3 ± 0.13 | -2.05 ± 0.14 |
| UUACAGCAAUAUUACGGACG | -0.683 ± 0.079 | -0.00562 ± 0.096 |
| UUACAGCAAUAUUACGGAGC | -3.42 ± 0.38 | -1.79 ± 0.35 |
| UUACAGCAAUAUUACGGAUU | -3.81 ± 0.24 | -2.08 ± 0.16 |
| UUACAGCAAUAUUACGGCAA | -0.112 ± 0.11 | -0.272 ± 0.12 |
| UUACAGCAAUAUUACGGCGU | -2.6 ± 0.14 | -2.57 ± 0.21 |
| UUACAGCAAUAUUACGGUCU | -0.96 ± 0.075 | -0.357 ± 0.088 |
| UUACAGCAAUAUUACGUAUG | -0.997 ± 0.054 | -0.53 ± 0.068 |
| UUACAGCAAUAUUACGUGGC | -2.87 ± 0.26 | -2.92 ± 0.34 |
| UUACAGCAAUAUUACGUGUA | -2.48 ± 0.084 | -1.48 ± 0.081 |
| UUACAGCAAUAUUACGUUCA | -0.535 ± 0.11 | 0.086 ± 0.12 |
| UUACAGCAAUAUUACGUUCU | -1.6 ± 0.13 | -1.01 ± 0.11 |
